Reference: US20250270328A1 (BRIGHAM AND WOMEN S HOSPITAL, published 2025)

T1: human KLRB1 protein extracellular domain (ECD) (human, UniProt Q12918 67-225)
T1 construct: range 67-225; The ELISA and SPR text says only 'human KLRB1 ECD'; also called human KLRB1 ECD; CD161
T1 sequence (looked up): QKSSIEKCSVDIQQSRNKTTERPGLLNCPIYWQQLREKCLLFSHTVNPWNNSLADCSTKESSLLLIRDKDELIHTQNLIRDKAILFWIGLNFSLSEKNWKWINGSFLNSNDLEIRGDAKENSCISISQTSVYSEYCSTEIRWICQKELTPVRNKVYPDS


Biological target: T1, human KLRB1 protein extracellular …
Experiment: SPR, human KLRB1 ECD; format not stated
Protocol: The chimeric antibody 10A3D6-hIgGlk (a mouse/human chimeric antibody with 10A3D6 variable regions and human IgG1-kappa constant regions), chimeric mutated variants (10A3D6C109S, 10A3D6C109F, and 10A3D6C109V), and humanized variants of 10A3D6 created by CDR grafting (Almagro et al. 2008) were assayed for binding against human KLRB1 extracellular domain (ECD) via surface plasma resonance (SPR).

Binder | Kd [pM] | koff [s⁻¹] | kon [M⁻¹ s⁻¹]
10A3D6 (murine monoclonal antibody) (antibody, mouse IgG1, copies: 2 + 2) heavy: EVQLQQSGPELVKPGASMKISCKASGYSFTGYTMNWVKQSHGKNLEWIGLINPNTGGTYYNQKFKDKATLTVDKSSSTAYMELLSLTSEDSAVYYCARLGDNYRGYFDCWGQGTTLTVSSAKTTPPSVYPLAPGSAAQTNSMVTLGCLVKGYFPEPVTVTWNSGSLSSGVHTFPAVLQSDLYTLSSSVTVPSSPRPSETVTCNVAHPASSTKVDKKIVPRDCGCKPCICTVPEVSSVFIFPPKPKDVLTITLTPKVTCVVVDISKDDPEVQFSWFVDDVEVHTAQTQPREEQFNSTFRSVSELPIMHQDWLNGKEFKCRVNSAAFPAPIEKTISKTKGRPKAPQVYTIPPPKEQMAKDKVSLTCMITDFFPEDITVEWQWNGQPAENYKNTQPIMNTNGSYFVYSKLNVQKSNWEAGNTFTCSVLHEGLHNHHTEKSLSHSPGK light: DIVMTQSHKFMSTSVGDRVNITCKASQDVGTAVVWYQQTPGQSPKVLIDWASIRHTGVPDRFTGSGSGTDFTLTISSVQSEDLADYFCQQYSTYLYTFGGGTKLEIKRADAAPTVSIFPPSSEQLTSGGASVVCFLNNFYPKDINVKWKIDGSERQNGVLNSWTDQDSKDSTYSMSSTLTLTKDEYERHNSYTCEATHKTSTSPIVKSFNRNEC | 259 | 0.000123 | 475000
10A3D6C109S-chimeric (antibody, human IgG1, V domains shown, Chimeric mutated variant; the name hIgG1k indicates human IgG1 kappa constant regions; also called 10A3D6C109ShIgG1k) VH: EVQLQQSGPELVKPGASMKISCKASGYSFTGYTMNWVKQSHGKNLEWIGLINPNTGGTYYNQKFKDKATLTVDKSSSTAYMELLSLTSEDSAVYYCARLGDNYRGYFDSWGQGTTLTVSS VL: DIVMTQSHKFMSTSVGDRVNITCKASQDVGTAVVWYQQTPGQSPKVLIDWASIRHTGVPDRFTGSGSGTDFTLTISSVQSEDLADYFCQQYSTYLYTFGGGTKLEIK | 51.1 | 0.000303 | 5.93e+06
10A3D6C109V-chimeric (antibody, human IgG1, V domains shown, Chimeric mutated variant; the name hIgG1k indicates human IgG1 kappa constant regions; also called 10A3D6C109VhIgG1k) VH: EVQLQQSGPELVKPGASMKISCKASGYSFTGYTMNWVKQSHGKNLEWIGLINPNTGGTYYNQKFKDKATLTVDKSSSTAYMELLSLTSEDSAVYYCARLGDNYRGYFDVWGQGTTLTVSS VL: DIVMTQSHKFMSTSVGDRVNITCKASQDVGTAVVWYQQTPGQSPKVLIDWASIRHTGVPDRFTGSGSGTDFTLTISSVQSEDLADYFCQQYSTYLYTFGGGTKLEIK | 43.6 | 0.000293 | 6.72e+06
10A3D6C109F-chimeric (antibody, human IgG1, V domains shown, Chimeric mutated variant; the name hIgG1k indicates human IgG1 kappa constant regions; also called 10A3D6C109FhIgG1k) VH: EVQLQQSGPELVKPGASMKISCKASGYSFTGYTMNWVKQSHGKNLEWIGLINPNTGGTYYNQKFKDKATLTVDKSSSTAYMELLSLTSEDSAVYYCARLGDNYRGYFDFWGQGTTLTVSS VL: DIVMTQSHKFMSTSVGDRVNITCKASQDVGTAVVWYQQTPGQSPKVLIDWASIRHTGVPDRFTGSGSGTDFTLTISSVQSEDLADYFCQQYSTYLYTFGGGTKLEIK | 62.7 | 0.000336 | 5.36e+06
10A3D6C109Chum2.2 (antibody, V domains shown, Humanized variant of 10A3D6 made by CDR grafting) VH: QVQLVQSGAEVKKPGASVKVSCKASGYSFTGYTMNWVRQAPGQNLEWIGLINPNTGGTYYNQKFKDRVTLTVDTSISTAYMELSRLRSDDTAVYYCARLGDNYRGYFDCWGQGTTVTVSS VL: DIQLTQSPSFLSASVGDRVTITCKASQDVGTAVVWYQQKPGKAPKLLIDWASIRHTGVPSRFSGSGSGTEFTLTISSLQPEDFADYFCQQYSTYLYTFGGGTKLEIK | 106 | 9.54e-05 | 903000
10A3D6C109Chum1.2 (antibody, V domains shown, Humanized variant of 10A3D6 made by CDR grafting) VH: QVQLVQSGAEVKKPGASVKVSCKASGYSFTGYTMNWVRQAPGQGLEWMGLINPNTGGTYYNQKFKDRVTMTRDTSISTAYMELSRLRSDDTAVYYCARLGDNYRGYFDCWGQGTTVTVSS VL: DIQLTQSPSFLSASVGDRVTITCKASQDVGTAVVWYQQKPGKAPKLLIDWASIRHTGVPSRFSGSGSGTEFTLTISSLQPEDFADYFCQQYSTYLYTFGGGTKLEIK | 93.2 | 9.35e-05 | 1e+06
10A3D6C109Chum4.1 (antibody, V domains shown, Humanized variant of 10A3D6 made by CDR grafting) VH: QVQLVQSGAEVKKPGASVKVSCKASGYSFTGYTMNWVRQAHGQNLEWIGLINPNTGGTYYNQKFKDRATLTVDTSISTAYMELSRLRSDDTAVYYCARLGDNYRGYFDCWGQGTTVTVSS VL: DIQLTQSPSFLSASVGDRVTITCKASQDVGTAVVWYQQKPGKAPKLLIYWASIRHTGVPSRFSGSGSGTEFTLTISSLQPEDFATYYCQQYSTYLYTFGGGTKLEIK | 21700 | 0.00253 | 117000
10A3D6C109Chum3.4 (antibody, V domains shown, Humanized variant of 10A3D6 made by CDR grafting) VH: QVQLVQSGAEVKKPGASVKVSCKASGYSFTGYTMNWVRQAHGQNLEWIGLINPNTGGTYYNQKFKDRVTLTVDTSISTAYMELSRLRSDDTAVYYCARLGDNYRGYFDCWGQGTTVTVSS VL: DIQLTQSPSFLSASVGDRVTITCKASQDVGTAVVWYQQTPGKAPKLLIDWASIRHTGVPDRFSGSGSGTEFTLTISSLQPEDFADYFCQQYSTYLYTFGGGTKLEIK | 90.7 | 9.2e-05 | 1.01e+06
10A3D6C109Chum3.3 (antibody, V domains shown, Humanized variant of 10A3D6 made by CDR grafting) VH: QVQLVQSGAEVKKPGASVKVSCKASGYSFTGYTMNWVRQAHGQNLEWIGLINPNTGGTYYNQKFKDRVTLTVDTSISTAYMELSRLRSDDTAVYYCARLGDNYRGYFDCWGQGTTVTVSS VL: DIQLTQSPSFLSASVGDRVTITCKASQDVGTAVVWYQQTPGKAPKLLIDWASIRHTGVPSRFSGSGSGTEFTLTISSLQPEDFADYFCQQYSTYLYTFGGGTKLEIK | 109 | 9.89e-05 | 905000
10A3D6C109Chum2.3 (antibody, V domains shown, Humanized variant of 10A3D6 made by CDR grafting) VH: QVQLVQSGAEVKKPGASVKVSCKASGYSFTGYTMNWVRQAPGQNLEWIGLINPNTGGTYYNQKFKDRVTLTVDTSISTAYMELSRLRSDDTAVYYCARLGDNYRGYFDCWGQGTTVTVSS VL: DIQLTQSPSFLSASVGDRVTITCKASQDVGTAVVWYQQTPGKAPKLLIDWASIRHTGVPSRFSGSGSGTEFTLTISSLQPEDFADYFCQQYSTYLYTFGGGTKLEIK | 98.5 | 9.41e-05 | 955000
10A3D6C109Chum1.3 (antibody, V domains shown, Humanized variant of 10A3D6 made by CDR grafting) VH: QVQLVQSGAEVKKPGASVKVSCKASGYSFTGYTMNWVRQAPGQGLEWMGLINPNTGGTYYNQKFKDRVTMTRDTSISTAYMELSRLRSDDTAVYYCARLGDNYRGYFDCWGQGTTVTVSS VL: DIQLTQSPSFLSASVGDRVTITCKASQDVGTAVVWYQQTPGKAPKLLIDWASIRHTGVPSRFSGSGSGTEFTLTISSLQPEDFADYFCQQYSTYLYTFGGGTKLEIK | 100 | 0.0001 | 999000
10A3D6C109Chum2.1 (antibody, V domains shown, Humanized variant of 10A3D6 made by CDR grafting) VH: QVQLVQSGAEVKKPGASVKVSCKASGYSFTGYTMNWVRQAPGQNLEWIGLINPNTGGTYYNQKFKDRVTLTVDTSISTAYMELSRLRSDDTAVYYCARLGDNYRGYFDCWGQGTTVTVSS VL: DIQLTQSPSFLSASVGDRVTITCKASQDVGTAVVWYQQKPGKAPKLLIYWASIRHTGVPSRFSGSGSGTEFTLTISSLQPEDFATYYCQQYSTYLYTFGGGTKLEIK | 12900 | 0.00408 | 315000
10A3D6C109Chum2.4 (antibody, V domains shown, Humanized variant of 10A3D6 made by CDR grafting) VH: QVQLVQSGAEVKKPGASVKVSCKASGYSFTGYTMNWVRQAPGQNLEWIGLINPNTGGTYYNQKFKDRVTLTVDTSISTAYMELSRLRSDDTAVYYCARLGDNYRGYFDCWGQGTTVTVSS VL: DIQLTQSPSFLSASVGDRVTITCKASQDVGTAVVWYQQTPGKAPKLLIDWASIRHTGVPDRFSGSGSGTEFTLTISSLQPEDFADYFCQQYSTYLYTFGGGTKLEIK | 97.6 | 9.68e-05 | 992000
10A3D6C109Chum1.1 (antibody, V domains shown, Humanized variant of 10A3D6 made by CDR grafting) VH: QVQLVQSGAEVKKPGASVKVSCKASGYSFTGYTMNWVRQAPGQGLEWMGLINPNTGGTYYNQKFKDRVTMTRDTSISTAYMELSRLRSDDTAVYYCARLGDNYRGYFDCWGQGTTVTVSS VL: DIQLTQSPSFLSASVGDRVTITCKASQDVGTAVVWYQQKPGKAPKLLIYWASIRHTGVPSRFSGSGSGTEFTLTISSLQPEDFATYYCQQYSTYLYTFGGGTKLEIK | 9420 | 0.00296 | 314000
10A3D6C109Chum3.1 (antibody, V domains shown, Humanized variant of 10A3D6 made by CDR grafting) VH: QVQLVQSGAEVKKPGASVKVSCKASGYSFTGYTMNWVRQAHGQNLEWIGLINPNTGGTYYNQKFKDRVTLTVDTSISTAYMELSRLRSDDTAVYYCARLGDNYRGYFDCWGQGTTVTVSS VL: DIQLTQSPSFLSASVGDRVTITCKASQDVGTAVVWYQQKPGKAPKLLIYWASIRHTGVPSRFSGSGSGTEFTLTISSLQPEDFATYYCQQYSTYLYTFGGGTKLEIK | 15800 | 0.00721 | 457000
10A3D6C109Chum1.4 (antibody, V domains shown, Humanized variant of 10A3D6 made by CDR grafting) VH: QVQLVQSGAEVKKPGASVKVSCKASGYSFTGYTMNWVRQAPGQGLEWMGLINPNTGGTYYNQKFKDRVTMTRDTSISTAYMELSRLRSDDTAVYYCARLGDNYRGYFDCWGQGTTVTVSS VL: DIQLTQSPSFLSASVGDRVTITCKASQDVGTAVVWYQQTPGKAPKLLIDWASIRHTGVPDRFSGSGSGTEFTLTISSLQPEDFADYFCQQYSTYLYTFGGGTKLEIK | 71.7 | 8.6e-05 | 1.2e+06
10A3D6C109Chum3.2 (antibody, V domains shown, Humanized variant of 10A3D6 made by CDR grafting) VH: QVQLVQSGAEVKKPGASVKVSCKASGYSFTGYTMNWVRQAHGQNLEWIGLINPNTGGTYYNQKFKDRVTLTVDTSISTAYMELSRLRSDDTAVYYCARLGDNYRGYFDCWGQGTTVTVSS VL: DIQLTQSPSFLSASVGDRVTITCKASQDVGTAVVWYQQKPGKAPKLLIDWASIRHTGVPSRFSGSGSGTEFTLTISSLQPEDFADYFCQQYSTYLYTFGGGTKLEIK | 135 | 0.000112 | 832000
